In paper PMC6476931, “The Complex Fibrinogen Interactions of the Staphylococcus aureus Coagulases” (Frontiers in Cellular and Infection Microbiology, 2019) one finds Kd data, which are given here for three molecules.

Holding throughout (conditions): both partners purified
The target of assay [1] is T1, GST-vWbp (full-length von Willebrand factor binding protein) (S. aureus strain Newman).
T1 construct: Cloned in pGEX-5x-1; also called full-length vWbp; source: E. coli BL21 (DE3)-derivative Acella, purified (glutathione-Sepharose 4B, gel permeation); not shown: GST, N-terminal, kept
Briefly: ELISA; GST-vWbp or GST-Coa coated on wells (5 μg/ml, 0.5 μg/well); soluble Fg in 1% BSA, 0.05% Tween 20, TBS; detected with HRP anti-human Fg; one-site fit, apparent KD, mean of three experiments. Background: An ELISA detects its analyte on a solid surface through an enzyme-linked reagent.

The target of assay [2] is T2, GST-Coa (full-length Coagulase) (S. aureus strain Newman).
T2 construct: Coagulase (Coa), S. aureus strain Newman, coa gene amplified from chromosomal DNA; cloning described in Ko et al., 2016; the recombinant protein probably lacks it; also called intact Coa; source: E. coli BL21 (DE3)-derivative Acella, purified (glutathione-Sepharose 4B, gel permeation); not shown: GST, N-terminal, kept
Described as above.

Assay [3] deals with T1, GST-vWbp (full-length von Willebrand …). As to the kind of experiment: ELISA; Fg coated on wells (5 μg/ml, 0.5 μg/well); GST-vWbp or GST-Coa proteins in 1% BSA, 0.05% Tween 20, TBS, 1 h at room temperature; detected with HRP anti-GST; one-site fit, apparent KD, mean of three experiments.
Assay [4] deals with T2, GST-Coa (full-length Coagulase). The assay is described as above.
The target of assay [5] is Human fibrinogen (human, UniProt P02671 36-866; P02675 45-491; P02679 27-453). The assay is described as above.
Human fibrinogen, sequence (P02671 36-866, one chain of several): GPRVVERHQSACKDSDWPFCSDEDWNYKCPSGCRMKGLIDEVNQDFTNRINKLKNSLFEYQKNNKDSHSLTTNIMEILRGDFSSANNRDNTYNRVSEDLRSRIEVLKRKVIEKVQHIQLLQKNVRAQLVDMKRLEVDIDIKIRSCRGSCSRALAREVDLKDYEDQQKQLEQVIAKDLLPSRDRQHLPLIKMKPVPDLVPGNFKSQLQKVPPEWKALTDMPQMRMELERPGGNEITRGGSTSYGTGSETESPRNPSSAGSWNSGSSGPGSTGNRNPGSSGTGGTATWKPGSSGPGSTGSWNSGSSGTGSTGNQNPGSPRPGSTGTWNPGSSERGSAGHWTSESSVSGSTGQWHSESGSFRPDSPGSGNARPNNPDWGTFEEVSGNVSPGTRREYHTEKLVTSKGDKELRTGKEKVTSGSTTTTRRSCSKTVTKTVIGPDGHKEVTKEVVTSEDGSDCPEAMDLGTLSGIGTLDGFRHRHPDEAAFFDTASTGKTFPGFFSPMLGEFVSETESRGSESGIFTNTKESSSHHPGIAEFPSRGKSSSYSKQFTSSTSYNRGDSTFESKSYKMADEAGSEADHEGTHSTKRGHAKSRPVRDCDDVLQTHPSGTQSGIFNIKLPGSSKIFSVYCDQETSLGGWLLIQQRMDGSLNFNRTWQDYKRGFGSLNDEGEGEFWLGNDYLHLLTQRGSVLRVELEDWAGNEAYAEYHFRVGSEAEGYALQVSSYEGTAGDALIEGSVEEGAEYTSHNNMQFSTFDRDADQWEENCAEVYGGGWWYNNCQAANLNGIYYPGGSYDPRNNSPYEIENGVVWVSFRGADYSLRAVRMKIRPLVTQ

B1: Human fibrinogen (complex)
chain 1: ADSGEGDFLAEGGGVRGPRVVERHQSACKDSDWPFCSDEDWNYKCPSGCRMKGLIDEVNQDFTNRINKLKNSLFEYQKNNKDSHSLTTNIMEILRGDFSSANNRDNTYNRVSEDLRSRIEVLKRKVIEKVQHIQLLQKNVRAQLVDMKRLEVDIDIKIRSCRGSCSRALAREVDLKDYEDQQKQLEQVIAKDLLPSRDRQHLPLIKMKPVPDLVPGNFKSQLQKVPPEWKALTDMPQMRMELERPGGNEITRGGSTSYGTGSETESPRNPSSAGSWNSGSSGPGSTGNRNPGSSGTGGTATWKPGSSGPGSTGSWNSGSSGTGSTGNQNPGSPRPGSTGTWNPGSSERGSAGHWTSESSVSGSTGQWHSESGSFRPDSPGSGNARPNNPDWGTFEEVSGNVSPGTRREYHTEKLVTSKGDKELRTGKEKVTSGSTTTTRRSCSKTVTKTVIGPDGHKEVTKEVVTSEDGSDCPEAMDLGTLSGIGTLDGFRHRHPDEAAFFDTASTGKTFPGFFSPMLGEFVSETESRGSESGIFTNTKESSSHHPGIAEFPSRGKSSSYSKQFTSSTSYNRGDSTFESKSYKMADEAGSEADHEGTHSTKRGHAKSRPV
chain 2: QGVNDNEEGFFSARGHRPLDKKREEAPSLRPAPPPISGGGYRARPAKAAATQKKVERKAPDAGGCLHADPDLGVLCPTGCQLQEALLQQERPIRNSVDELNNNVEAVSQTSSSSFQYMYLLKDLWQKRQKQVKDNENVVNEYSSELEKHQLYIDETVNSNIPTNLRVLRSILENLRSKIQKLESDVSAQMEYCRTPCTVSCNIPVVSGKECEEIIRKGGETSEMYLIQPDSSVKPYRVYCDMNTENGGWTVIQNRQDGSVDFGRKWDPYKQGFGNVATNTDGKNYCGLPGEYWLGNDKISQLTRMGPTELLIEMEDWKGDKVKAHYGGFTVQNEANKYQISVNKYRGTAGNALMDGASQLMGENRTMTIHNGMFFSTYDRDNDGWLTSDPRKQCSKEDGGGWWYNRCHAANPNGRYYWGGQYTWDMAKHGTDDGVVWMNWKGSWYSMRKMSMKIRPFFPQQ
chain 3: YVATRDNCCILDERFGSYCPTTCGIADFLSTYQTKVDKDLQSLEDILHQVENKTSEVKQLIKAIQLTYNPDESSKPNMIDAATLKSRKMLEEIMKYEASILTHDSSIRYLQEIYNSNNQKIVNLKEKVAQLEAQCQEPCKDTVQIHDITGKDCQDIANKGAKQSGLYFIKPLKANQQFLVYCEIDGSGNGWTVFQKRLDGSVDFKKNWIQYKEGFGHLSPTGTTEFWLGNEKIHLISTQSAIPYALRVELEDWNGRTSTADYAMFKVGPEADKYRLTYAYFAGGDAGDAFDGFDFGDDPSDKFFTSHNGMQFSTWDNDNDKFEGNCAEQDGSGWWMNKCHAGHLNGVYYQGGTYSKASTPNGYDNGIIWATWKTRWYSMKKTTMKIIPFNRLTIGEGQQHHLGGAKQAGDV
modifications: plasma-purified hexamer (AαBβγ)2, disulfide-linked, N-glycosylated, fibrinopeptides A and B retained. Predominant plasma forms assumed: 610-residue Aα and 411-residue γA (the P02679 canonical …)
Take B1: the Kd in assay [1] is 5.3 nM; in assay [2] it was 0.09 nM; in assay [3], 9.9 nM; in assay [4], 2.4 nM.

B2: GST-Coa-N (N-terminal half of Coa) (domain or fragment)
chain: IVTKDYSGKSQVNAGSKNGTLIDSRYLNSALYYLEDYIIYAIGLTNKYEYGDNIYKEAKDRLLEKVLREDQYLLERKKSQYEDYKQWYANYKKENPRTDLKMANFHKYNLEELSMKEYNELQDALKRALDDFHREVKDIKDKNSDLKTFNAAEEDKATKEVYDLVSEIDTLVVSYYGDKDYGEHAKELRAKLDLILGDTDNPHKITNERIKKEMIDDLNSIIDDFFMETKQNRPKSITKYNPTTHNYKTNSDNKPNFDKLVEETKKAVKEADDSWKKKTVKKYG
modifications: plasma-purified hexamer (AαBβγ)2, disulfide-linked, N-glycosylated, fibrinopeptides A and B retained. Predominant plasma forms assumed: 610-residue Aα and 411-residue γA (the P02679 canonical …)
B2: the Kd in assay [5] was determined as 20 nM.

B3: GST-Coa-C (C-terminal half of Coa) (domain or fragment)
chain: ETETKSPVVKEEKKVEEPQAPKVDNQQEVKTTAGKAEETTQPVAQPLVKIPQGTITGEIVKGPEYPTMENKTVQGEIVQGPDFLTMEQSGPSLSNNYTNPPLTNPILEGLEGSSSKLEIKPQGTESTLKGTQGESSDIEVKPQATETTEASQYGPRPQFNKTPKYVKYRDAGTGIREYNDGTFGYEARPRFNKPSETNAYNVTTHANGQVSYGARPTYKKPSETNAYNVTTHANGQVSYGARPTQNKPSKTNAYNVTTHGNGQVSYGARPTQNKPSKTNAYNVTTHANGQVSYGARPTYKKPSKTNAYNVTTHADGTATYGPRVTK
modifications: plasma-purified hexamer (AαBβγ)2, disulfide-linked, N-glycosylated, fibrinopeptides A and B retained. Predominant plasma forms assumed: 610-residue Aα and 411-residue γA (the P02679 canonical …)
Consider B3, for which, in assay [5], the Kd amounted to 0.46 nM.
